This note sets out measurements from the supplement of paper PMC12042874.

± gives the uncertainty stated by the source.

The nature of this series: amyloid nucleation score (Sup35N fusion, yeast selection) (log enrichment); library NNK1; higher = more nucleation; inactive = no reads after selection. In short, it runs like this:
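Sup35N fusions to peptides of 20 random codons were expressed in psi-negative yeast, induced 24 hours with 100 μM copper sulfate, and grown 7 days at 30°C on medium lacking adenine and uracil. Input and output plasmid inserts were sequenced by Illumina. The nucleation score is the DiMSum log enrichment of output over input reads, centred on the mode score of non-aggregating sequences. Sequences with under 100 input reads were excluded.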
The substance RGNWIRS registered an amyloid nucleation score of -0.533 ± 0.77. With GGSGDTTSCMLFKRIVRR, the amyloid nucleation score entry is “inactive”.

Substance GMPGHFLLLKLGYFANRTNR came in with an amyloid nucleation score of -1.25 ± 1.1. The substance LIGHRSRS showed an amyloid nucleation score of -1.57 ± 1.1. The entry for SRLVFGHTNRRNSIEQTELL is “inactive”; for IKISYEIQAMAVLGM it is “inactive”; for CNLNAGGKRWADRT it is 0.3 ± 0.85. The figure for FVINSTIRKVFFGFPDWCMC is -0.135 ± 0.3; for LSCPRLVTLCCNLWDKYSLW it is 0.955 ± 0.28. The result for CSCACCVELHQL reads 6.611 ± 0.062; that for SVSRYDFEVGVMGHKCCITT, -0.359 ± 0.42; that for RIGRKDLLFWVPTCRHVLLL, 0.416 ± 0.28. For the substance TSFCIETSGSILIELYGCWA, the amyloid nucleation score is -0.356 ± 0.5. In turn, SDHRTW registered an amyloid nucleation score of 0.743 ± 0.42.

In turn, MRVHFLE had an amyloid nucleation score of 0.136 ± 0.41.

Regarding VGNWYPGIG, the amyloid nucleation score result is “inactive”.

The substance SGSQY displayed an amyloid nucleation score of -1.26 ± 1.7.

As to WVHMFMHDYNMRYTFSVYMC, the amyloid nucleation score result was “inactive”. Consider WCVYNFSCALISPY, for which the amyloid nucleation score was found to be 6.018 ± 0.054. The figure for CIDMFNLLNLKHASYWVVVY is -0.563 ± 0.52; for ASSCLNSRFGCQRFLGYLWL it is 0.33 ± 0.39; for PCSVVV it is -0.246 ± 0.32. The figure for TTIQGRPVNVAAFRTTLLTR is -1.11 ± 2.7; for FVAGDSLTHARKYAVQRL it is -1.08 ± 0.59; for SDEMVW it is 2.65 ± 0.11. The figure for MSMMLTRIAHTLSESWRTHW is -0.09 ± 0.97. As to CNSFCGMHCGNV, the amyloid nucleation score was 0.238 ± 0.62. The figure for TCYLSDSLASY is -0.328 ± 0.54; for LVLLQVVIYGHLQCSFYQMH it is 1.8 ± 0.23. The result for SIYEVEGVTLGLEEHNMKGE reads -0.43 ± 0.43. On to QMDMCDYERFYLA, for which the amyloid nucleation score result was “inactive”. The entry for YVSAVGLWVVLYYMMRMCAS is “inactive”; for NHMFPMVVTYLWSCFIIGSV it is 2.42 ± 0.37; for VYRNASLCVSEVL it is 0.211 ± 0.97. The figure for FASLFYKLQASLFTLDNIMH is -0.006 ± 0.88; for KFSNWTDV it is -0.164 ± 1.1; for FDSRRGEGALMSNDSSCERG it is -0.185 ± 0.69. DPADAPMITRNVGTWAKQVP: the amyloid nucleation score came to 0.324 ± 0.97.

In the case of TTFTRVTLICSPPVQAKLGR, the amyloid nucleation score was determined as 0.399 ± 0.27.

In the case of LDARKKARMWRNTIDMDELV, the amyloid nucleation score result was “inactive”. The figure for YIYNWRYN is 1.71 ± 0.54. HAAYTEVFILLLNDNILPHL came in with an amyloid nucleation score of -0.393 ± 0.45. Take FNLGSGDWL: the amyloid nucleation score is -0.842 ± 0.65. The result for FQAQWNLSTCPNAFCLFLIR reads 5.82 ± 0.059; that for TWKAIWSEWYRTVPTGVLSN, 0.461 ± 0.42; that for KELFLMPDGEPFMG, 0.079 ± 0.61. For VRNNYSTSIRVVRMAIMWPG, the amyloid nucleation score was 5.83 ± 0.078.

On to SILISMYGGSSKKCQRFEEG, for which the amyloid nucleation score was 0.977 ± 0.47.

The substance FLLNSPQNASYSPHRRLAFD showed an amyloid nucleation score of -1.38 ± 0.92. Substance VSYKCSVRFLCIGRLRGVLF came in with an amyloid nucleation score of -0.197 ± 0.28. MLGFYKSWCFNFSNMNVH showed an amyloid nucleation score of 0.979 ± 0.57. The figure for PLSILRKMAGVVSGCTAPTS is 0.663 ± 0.7. Consider PMLVQLLEASWVKPVLDCIY, for which the amyloid nucleation score entry is “inactive”.

Regarding LVLANTDSLTLWFLVTYLTC, the amyloid nucleation score is -0.42 ± 0.62.

In the case of CQPLLSMYLVHYTA, the amyloid nucleation score was found to be 0.116 ± 0.2. The result for TDARTR reads 1.15 ± 0.36; that for SSFQGPSYSSCIRQHRNTRI, -0.614 ± 0.67. The substance NLSTSMSRREIMQQHQHRRL came in with an amyloid nucleation score of 0.594 ± 0.64. On to SFVVGNGYMVGWWFITAHVA, for which the amyloid nucleation score was 0.499 ± 0.41.

Regarding TRWQITDPYSPCTWSCSWTQ, the amyloid nucleation score was found to be 0.906 ± 1. For FRGTVFSW, the amyloid nucleation score was -0.26 ± 0.69.

For RINVSGWQLQATLSFLLAFS, the amyloid nucleation score was 0.289 ± 0.5. The figure for RRFPRMWGLCMSLFRSHCGS is 1.92 ± 0.27. The figure for CTYVLWRGMKGFR is 0.05 ± 0.88; for WEVSPIGVPYSY it is -0.117 ± 0.57. Turning to VTRVRFGSVWGSQVHRNFVM, the amyloid nucleation score is 0.212 ± 0.4. The result for LKKTYYSMYL reads -0.045 ± 0.33; that for VDVANGLADVYLLQ, -0.009 ± 0.57.

GKAASRNGGMWKEMRFEACD displayed an amyloid nucleation score of 0.046 ± 0.42. The entry for LYLMGVRVMGNSICTLVRRL is “inactive”; for NSSLLDISLYDNLVQGSDWP it is -0.249 ± 0.57; for GNIFWRMLWFVGYEKGSLLF it is -0.022 ± 0.36. GKHGQDFNSYRRVWLKSYLC: the amyloid nucleation score is 1.07 ± 0.52. For LVVHTVRVQDR, the amyloid nucleation score is -0.043 ± 0.41. The figure for FVHDLWLGYGVNFLIAVMCS is 0.209 ± 0.34; for YFYDTWGA it is -0.235 ± 0.47; for DLFFIG it is 0.188 ± 0.38. On to GMNPQTHAPVILTLGVQNIR, for which the amyloid nucleation score is 2.2 ± 0.14.

For the substance LYRCYESG, the amyloid nucleation score is -0.378 ± 0.27. The figure for PLVVGRVCEGYRRWCWFGRR is -0.369 ± 0.38. The result for FMVLDQFIE reads 0.383 ± 0.95; that for SLKSSCRKNRLM, 0.048 ± 0.5; that for WHGVFKTRNRLCGTLPWFCA, -0.143 ± 0.51. ENVAITMVLPSAKMGSYMDG showed an amyloid nucleation score of 0.453 ± 1.2.

For RQDQLFPICEDSTT, the amyloid nucleation score was determined as 0.612 ± 0.97.

Turning to NMGIKVLSKYNVIYYSAGTP, the amyloid nucleation score was determined as 8.343 ± 0.048. As for LCQVTG, the amyloid nucleation score turned out to be 0.391 ± 0.48.

On to RWPRCYYNLGKCTDISLTWS, for which the amyloid nucleation score amounted to 2.56 ± 0.18. The entry for NFDNYVLLPLALTC is “inactive”; for DMEQAICEPSLFKIVGDNNL it is -0.186 ± 0.86.

GSFLRGPHPKNY registered an amyloid nucleation score of 0.853 ± 0.66. The figure for PCFRTYDCAISNLAVASRCR is 1.03 ± 0.37; for ISCTTFACTTRLKIRAAS it is 0.434 ± 0.56; for VIFYTFMVRTITACCLKLWV it is “inactive”.

In turn, SACLQVWE had an amyloid nucleation score of 0.284 ± 0.4. The result for GAPRSCGLAD reads 0.27 ± 0.63; that for DSRCGPM, “inactive”. With LLWAPILCLTGDNTVGFLSP, the amyloid nucleation score came to 3.3 ± 0.066.

On to SLRSHML, for which the amyloid nucleation score was determined as 0.938 ± 0.98. The result for GIYTFFVGTKFC reads 0.65 ± 0.5; that for ENTVDPLRLDWCSGTSVWYK, 0.54 ± 0.88. In turn, VGLIDANTSSTSWCEGMRNS gave an amyloid nucleation score of -0.321 ± 0.47. Substance EESSPEAWSVRERTAGVFVF displayed an amyloid nucleation score of -0.09 ± 0.86. PVQDGSLGCQSHYCSRYCYV came in with an amyloid nucleation score of -0.129 ± 0.46.
